According to patent publication US20220153847A1 (Chugai, published 2022):

How the values were obtained:
[1] = target: HLA-DQ2.5/33mer gliadin peptide on IHW9088 cells (human); test: cell-based or functional assay
[2] = target: T1, HLA-DQ2.5/14mer 1 peptide complex on Ba/F3 cells (human); test: FACS, Ba/F3 cells; IC17=0%, DQN0139bb//IC17=100%;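 also: flow cytometry binding of anti-HLA-DQ antibodies at 5 µg/mL, incubated 30 min at room temperature with Ba/F3 lines presenting HLA-DQ/peptide complexes; antibody tested at 5 microgram/mL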
T1 construct: whole, on cells; also called Ba/F3-HLA-DQ2.5/14mer 1
From the text: (§1) The binding of anti-HLA-DQ antibodies to Ba/F3-HLA-DQ2.5, Ba/F3-HLA-DQ2.2, Ba/F3-HLA-DQ7.5, Ba/F3-HLA-DQ8, Ba/F3-HLA-DQ5.1, Ba/F3-HLA-DQ6.3, Ba/F3-HLA-DQ7.3, Ba/F3-HLA-DR, Ba/F3-HLA-DP, Ba/F3-HLA-DQ2.5/CLIP, Ba/F3-HLA-DQ2.5/HBV, Ba/F3-HLA-DQ2.5/Salmonella, Ba/F3-HLA-DQ2.5/TPO, Ba/F3-HLA-DQ2.5/M. bovis, Ba/F3-HLA-DQ2.5/alpha 1 gliadin, Ba/F3-HLA-DQ2.5/alpha 2 gliadin, Ba/F3-HLA-DQ2.5/gamma 1 gliadin, Ba/F3-HLA-DQ2.5/gamma 2 gliadin, Ba/F3-HLA-DQ2.5/omega 1 gliadin, Ba/F3-HLA-DQ2.5/omega 2 gliadin, Ba/F3-HLA-DQ2.5/BC hordein, Ba/F3-HLA-DQ2.5/alpha 3 gliadin, Ba/F3-HLA-DQ2.5/alpha 1b gliadin, Ba/F3-HLA-DQ2.5/gamma 4b gliadin, Ba/F3-HLA-DQ2.5/avenin 1, Ba/F3-HLA-DQ2.5/avenin 2, Ba/F3-HLA-DQ2.5/avenin 3, Ba/F3-HLA-DQ2.5/hordein 1, Ba/F3-HLA-DQ2.5/hordein 2, Ba/F3-HLA-DQ2.5/secalin 1, Ba/F3-HLA-DQ2.5/secalin 2, Ba/F3-HLA-DQ2.5/14mer 1, Ba/F3-HLA-DQ2.5/33mer gliadin, Ba/F3-HLA-DQ2.5/26mer gliadin, was tested. 5 microgram/mL of each of the anti-HLA-DQ antibodies was incubated with each cell line for 30 minutes at room temperature and washed with FACS buffer (2% FBS, 2 mM EDTA in PBS).

[3] = target: T2, HLA-DQ2.5/avenin 1 peptide complex on Ba/F3 cells (human); test: FACS, Ba/F3 cells; IC17=0%, DQN0139bb//IC17=100%;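 also: flow cytometry binding of anti-HLA-DQ antibodies at 5 µg/mL, incubated 30 min at room temperature with Ba/F3 lines presenting HLA-DQ/peptide complexes; antibody tested at 5 microgram/mL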
T2 construct: whole, on cells; also called Ba/F3-HLA-DQ2.5/avenin 1
From the text: as §1

[4] = target: T3, HLA-DQ2.5/avenin 3 peptide complex on Ba/F3 cells (human); test: FACS, Ba/F3 cells; IC17=0%, DQN0139bb//IC17=100%;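 also: flow cytometry binding of anti-HLA-DQ antibodies at 5 µg/mL, incubated 30 min at room temperature with Ba/F3 lines presenting HLA-DQ/peptide complexes; antibody tested at 5 microgram/mL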
T3 construct: whole, on cells; also called Ba/F3-HLA-DQ2.5/avenin 3
From the text: as §1

[5] = target: T4, HLA-DQ2.5/BC hordein peptide complex on Ba/F3 cells (human); test: FACS, Ba/F3 cells; IC17=0%, DQN0139bb//IC17=100%;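 also: flow cytometry binding of anti-HLA-DQ antibodies at 5 µg/mL, incubated 30 min at room temperature with Ba/F3 lines presenting HLA-DQ/peptide complexes; antibody tested at 5 microgram/mL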
T4 construct: whole, on cells; also called Ba/F3-HLA-DQ2.5/BC hordein
From the text: as §1

[6] = target: T5, HLA-DQ2.5/alpha 1b gliadin peptide complex on Ba/F3 cells (human); test: FACS, Ba/F3 cells; IC17=0%, DQN0139bb//IC17=100%
T5 construct: whole, on cells; also called Ba/F3-HLA-DQ2.5/alpha 1b gliadin; HLA-DQ2.5/a1b gliadin
From the text: as §1

[7] = target: T6, HLA-DQ2.5/gamma 2 gliadin peptide complex on Ba/F3 cells (human); test: FACS, Ba/F3 cells; IC17=0%, DQN0139bb//IC17=100%
T6 construct: whole, on cells; also called Ba/F3-HLA-DQ2.5/gamma 2 gliadin; HLA-DQ2.5/g2 gliadin
From the text: as §1

[8] = target: T7, HLA-DQ2.5/avenin 2 peptide complex on Ba/F3 cells (human); test: FACS, Ba/F3 cells; IC17=0%, DQN0139bb//IC17=100%
T7 construct: whole, on cells; also called Ba/F3-HLA-DQ2.5/avenin 2
From the text: as §1

[9] = target: T8, HLA-DQ2.5/secalin 1 peptide complex on Ba/F3 cells (human); test: FACS, Ba/F3 cells; IC17=0%, DQN0139bb//IC17=100%
T8 construct: whole, on cells; also called Ba/F3-HLA-DQ2.5/secalin 1
From the text: as §1

[10] = target: T9, HLA-DQ2.5/alpha 2 gliadin peptide complex on Ba/F3 cells (human); test: FACS, Ba/F3 cells; IC17=0%, DQN0139bb//IC17=100%
T9 construct: whole, on cells; also called Ba/F3-HLA-DQ2.5/alpha 2 gliadin; HLA-DQ2.5/a2 gliadin
From the text: as §1

[11] = target: T10, HLA-DQ2.5/alpha 3 gliadin peptide complex on Ba/F3 cells (human); test: FACS, Ba/F3 cells; IC17=0%, DQN0139bb//IC17=100%
T10 construct: whole, on cells; also called Ba/F3-HLA-DQ2.5/alpha 3 gliadin; HLA-DQ2.5/a3 gliadin
From the text: as §1

[12] = target: T11, HLA-DQ2.5/gamma 1 gliadin peptide complex on Ba/F3 cells (human); test: FACS, Ba/F3 cells; IC17=0%, DQN0139bb//IC17=100%
T11 construct: whole, on cells; also called Ba/F3-HLA-DQ2.5/gamma 1 gliadin; HLA-DQ2.5/g1 gliadin
From the text: as §1

[13] = target: T12, HLA-DQ2.5/omega 1 gliadin peptide complex on Ba/F3 cells (human); test: FACS, Ba/F3 cells; IC17=0%, DQN0139bb//IC17=100%
T12 construct: whole, on cells; also called Ba/F3-HLA-DQ2.5/omega 1 gliadin; HLA-DQ2.5/w1 gliadin
From the text: as §1

[14] = target: T13, HLA-DQ2.5/alpha 1 gliadin peptide complex on Ba/F3 cells (human); test: FACS, Ba/F3 cells; IC17=0%, DQN0139bb//IC17=100%
T13 construct: whole, on cells; also called Ba/F3-HLA-DQ2.5/alpha 1 gliadin; HLA-DQ2.5/a1 gliadin
From the text: as §1

[15] = target: T14, HLA-DQ2.5/omega 2 gliadin peptide complex on Ba/F3 cells (human); test: FACS, Ba/F3 cells; IC17=0%, DQN0139bb//IC17=100%
T14 construct: whole, on cells; also called Ba/F3-HLA-DQ2.5/omega 2 gliadin; HLA-DQ2.5/w2 gliadin
From the text: as §1

HLA-DQ2.2 on Ba/F3 cells = target: T15, HLA-DQ2.2 on Ba/F3 cells (human, UniProt P01909 24-216, limits assumed); test: FACS, Ba/F3 cells; IC17=0%, DQN0139bb//IC17=100%
T15 construct: whole, on cells; also called Ba/F3-HLA-DQ2.2
From the text: as §1
T15 MHC II alpha: not shown
T15 MHC II beta: not shown

[16] = target: T16, HLA-DQ2.5/secalin 2 peptide complex on Ba/F3 cells (human); test: FACS, Ba/F3 cells; IC17=0%, DQN0139bb//IC17=100%
T16 construct: whole, on cells; also called Ba/F3-HLA-DQ2.5/secalin 2
From the text: as §1

[17] = target: T17, HLA-DQ2.5/gamma 4b gliadin peptide complex on Ba/F3 cells (human); test: FACS, Ba/F3 cells; IC17=0%, DQN0139bb//IC17=100%
T17 construct: whole, on cells; also called Ba/F3-HLA-DQ2.5/gamma 4b gliadin; HLA-DQ2.5/g4b gliadin
From the text: as §1

[18] = target: T18, HLA-DQ2.5/hordein 1 peptide complex on Ba/F3 cells (human); test: FACS, Ba/F3 cells; IC17=0%, DQN0139bb//IC17=100%
T18 construct: whole, on cells; also called Ba/F3-HLA-DQ2.5/hordein 1
From the text: as §1

[19] = target: T19, HLA-DQ2.5/hordein 2 peptide complex on Ba/F3 cells (human); test: FACS, Ba/F3 cells; IC17=0%, DQN0139bb//IC17=100%
T19 construct: whole, on cells; also called Ba/F3-HLA-DQ2.5/hordein 2
From the text: as §1

[20] = target: T20, HLA-DQ2.5/26mer gliadin peptide complex on Ba/F3 cells (human); test: FACS, Ba/F3 cells; IC17=0%, DQN0139bb//IC17=100%
T20 construct: whole, on cells; also called Ba/F3-HLA-DQ2.5/26mer gliadin
From the text: as §1

[21] = target: T21, HLA-DQ2.5 on HLA-DQ2.5-positive PBMC B cells (human, UniProt P01909 24-254; P01920 33-261); test: FACS, PBMC B cells; IC17=0%, DQN0139bb//IC17=100%
T21 construct: whole, on cells; also called HLA-DQ2.5+ PBMC B cell
T21 MHC II alpha: not shown
T21 MHC II beta: not shown

[22] = target: DQ2.5/alpha 2 gliadin peptide on IHW9023 cells (human); test: cell-based or functional assay
[23] = target: DQ2.5/BC hordein peptide on IHW9023 cells (human); test: cell-based or functional assay
[24] = target: DQ2.5/omega 1 gliadin peptide on IHW9023 cells (human); test: cell-based or functional assay
[25] = target: DQ2.5/alpha 1 gliadin peptide on IHW9023 cells (human); test: cell-based or functional assay
[26] = target: DQ2.5/gamma 1 gliadin peptide on IHW9023 cells (human); test: cell-based or functional assay
[27] = target: DQ2.5/alpha 1b gliadin peptide on IHW9023 cells (human); test: cell-based or functional assay
[28] = target: DQ2.5/omega 2 gliadin peptide on IHW9023 cells (human); test: cell-based or functional assay

B1: DQN0139bb//IC17 (bispecific antibody, human IgG1, kappa)
heavy 1: QSLEESGGRLVTPGTALTLTCTVSGFSLSSYAMGWVRQAPGKGLEYIGWTSPGDSAYYASWTKGRFTISRTSTTVELKITSPTTEDTATYFCARDAAYIGHWAFNLWGPGTLVTVSSASTKGPSVFPLAPSSKSTSGGTAALGCLVKDYFPEPVTVSWNSGALTSGVHTFPAVLQSSGLYSLSSVVTVPSSSLGTQTYICNVNHKPSNTKVDKRVEPKSCDKTHTCPPCPAPELRRGPSVFLFPPKPKDTLMISRTPEVTCVVVDVSHEDPEVKFNWYVDGVEVHNAKTKPREEQYNSTYRVVSVLTVLHQDWLNGKEYKCKVSNKALPAPIEKTISKAKGQPREPQVYTLPPSREEMTKNQVSLTCLVKGFYPSDIAVEWESNGQPENNYKTTPPYLDSDGSFFLYSKLTVDKSRWQQGNVFSCSVMHEALHNHYTQESLSLSP
light 1: DVVMTQTPASVSAPVGGTVTINCQASESIYSNLAWYQQKPGQPPKLLIYGASTLESGVPSRVKGSGYGTQFTLTISDLECADAATYYCQQYYGSSSTAFTFGGGTKVEIKRTVAAPSVFIFPPSDEQLKSGTASVVCLLNNFYPREAKVQWKVDNALQSGNSQESVTEQDSKDCTYSLSSTLTLSKADYEKHKVYACEVTHQGLSSPVTKSFNRGEC
heavy 2: QVQLQQSGPQLVRPGASVKISCKASGYSFTSYWMHWVNQRPGQGLEWIGMIDPSYSETRLNQKFKDKATLTVDKSSSTAYMQLSSPTSEDSAVYYCALYGNYFDYWGQGTTLTVSSASTKGPSVFPLAPSSKSTSGGTAALGCLVKDYFPEPVTVSWNSGALTSGVHTFPAVLQSSGLYSLSSVVTVPSSSLGTQTYICNVNHKPSNTKVDKRVEPKSCDKTHTCPPCPAPELRRGPSVFLFPPKPKDTLMISRTPEVTCVVVDVSHEDPEVKFNWYVDGVEVHNAKTKPREEQYNSTYRVVSVLTVLHQDWLNGKEYKCKVSNKALPAPIEKTISKAKGQPREPQVYTLPPSRKEMTKNQVSLTCLVKGFYPSDIAVEWESNGQPENNYKTTPPYLDSDGSFFLYSKLTVDKSRWQQGNVFSCSVMHEALHNHYTQKSLSLSP
light 2: DIQMTQSSSSFSVSLGDRVTITCKASEDIYNRLAWYQQKPGNAPRLLISGATSLETGVPSRFSGSGSGKDYTLSITSLQTEDVATYYCQQYWSTPYTFGGGTKLEVKRTVAAPSVFIFPPSDEQLKSGTASVVCLLNNFYPREAKVQWKVDNALQSGNSQESVTEQDSKDSTYSLSSTLTLSKADYEKHKVYACEVTHQGLSSPVTKSFNRGEC
IC50 (read off the curve) [1]: ~0.4 microgram/mL

B2: DQN0344xx//DQN0429cc (bispecific antibody, human IgG1, kappa)
heavy 1: QSLEESGGGLVKPGGTLTLTCTASGFSFSSSYWMCWVRQAPGKGLEWVACVYGGSDTTYYASWTKGRFTISKGSSTTVALQVTSLTAADTATYFCARDPLNYYYYGELNLWGPGTLVTVSSASTKGPSVFPLAPSSKSTSGGTAALGCLVKDYFPEPVTVSWNSGALTSGVHTFPAVLQSSGLYSLSSVVTVPSSSLGTQTYICNVNHKPSNTKVDKRVEPKSCDKTHTCPPCPAPELRRGPSVFLFPPKPKDTLMISRTPEVTCVVVDVSHEDPEVKFNWYVDGVEVHNAKTKPREEQYNSTYRVVSVLTVLHQDWLNGKEYKCKVSNKALPAPIEKTISKAKGQPREPQVYTLPPSREEMTKNQVSLTCLVKGFYPSDIAVEWESNGQPENNYKTTPPYLDSDGSFFLYSKLTVDKSRWQQGNVFSCSVMHEALHNHYTQESLSLSP
light 1: AVVLTQTASPVSAAVGGTVTIRCQATENIYSGLAWYQQKPGQPPKVLIYYVSTLASGVPSRFKGSGSGTEYTLTISGVQCDDAATYYCQTYHDISNVTFGGGTKVEIKRTVAAPSVFIFPPSDEQLKSGTASVVCLLNNFYPREAKVQWKVDNALQSGNSQESVTEQDSKDCTYSLSSTLTLSKADYEKHKVYACEVTHQGLSSPVTKSFNRGEC
heavy 2: QEQLVESGGGLVQPEGSLTLTCTASGFSFSSSYYMCWVRQAPGKGLEWIGCIYTGSGSTDYATWVNGRFTISKTSSTTVTLQMTSLTVADTATYFCARDIGIDYNFWGPGTLVTVSSASTKGPSVFPLAPSSKSTSGGTAALGCLVKDYFPEPVTVSWNSGALTSGVHTFPAVLQSSGLYSLSSVVTVPSSSLGTQTYICNVNHKPSNTKVDKRVEPKSCDKTHTCPPCPAPELRRGPSVFLFPPKPKDTLMISRTPEVTCVVVDVSHEDPEVKFNWYVDGVEVHNAKTKPREEQYNSTYRVVSVLTVLHQDWLNGKEYKCKVSNKALPAPIEKTISKAKGQPREPQVYTLPPSRKEMTKNQVSLTCLVKGFYPSDIAVEWESNGQPENNYKTTPPYLDSDGSFFLYSKLTVDKSRWQQGNVFSCSVMHEALHNHYTQKSLSLSP
light 2: AFELTQTPSFVEARVGGTVTIKCQATQSISSYLNWYQQKPGQPPKLLIYYASTLASGVPSRFKGSGSGTEFTLTISGVECADAATYYCHYGISYVSFGGGTKVEIKRTVAAPSVFIFPPSDEQLKSGTASVVCLLNNFYPREAKVQWKVDNALQSGNSQESVTEQDSKDCTYSLSSTLTLSKADYEKHKVYACEVTHQGLSSPVTKSFNRGEC
% MFI [2]: 19.4%
% MFI [3]: 14.2%
% MFI [4]: 19.6%
% MFI [5]: 18.5%
% MFI [6]: 64.6%
% MFI [7]: 1.3%
% MFI [8]: 18.3%
% MFI [9]: 37.8%
% MFI [10]: 58.7%
% MFI [11]: 18%
% MFI [12]: 16.9%
% MFI [13]: 43%
% MFI [14]: 63.1%
% MFI [15]: 19.3%
% MFI (HLA-DQ2.2 on Ba/F3 cells): 0.8%
% MFI [16]: 43.3%
% MFI [17]: 6.2%
% MFI [18]: 20.3%
% MFI [19]: 90%
% MFI [20]: 30.7%
% MFI [21]: 0.4%
IC50, Jurkat NFAT-Luc T cell activation [22]: 0.00196 µg/mL
IC50, Jurkat NFAT-Luc T cell activation [23]: 0.415 µg/mL
IC50, Jurkat NFAT-Luc T cell activation [24]: 0.0397 µg/mL
IC50, Jurkat NFAT-Luc T cell activation [25]: 0.0498 µg/mL
IC50, Jurkat NFAT-Luc T cell activation [26]: 0.0947 µg/mL
IC50, Jurkat NFAT-Luc T cell activation [27]: 0.171 µg/mL
IC50, Jurkat NFAT-Luc T cell activation [28]: 0.0146 µg/mL
